# US8846873B2, “Antibodies directed to GPNMB and uses thereof” (Celldex Therapeutics, Inc., priority 2004, dated 2014)
# Entries after “also recorded” stand apart in the source; their conditions may differ. Counter-ions that a name gives are not always drawn. Where a SMILES comes first, the peptide text is derived from it. [ ]: non-standard residue; d: D form. The star is where a group is joined. Dolaproine = CO[C@@H]([C@@H]1CCCN1)[C@@H](C)C(=O)O; Dil = CC[C@H](C)[C@H](NC)[C@@H](CC(=O)O)OC; X1 = C[C@@H](N*)[C@@H](O)c1ccccc1; NMeV = CN[C@H](C(=O)O)C(C)C
# Tests used:
# [1] = test system: SK-MEL-5 melanoma xenografts; assay: Human SK-MEL-5 melanoma xenograft in athymic mice; type: in vivo
# Procedure: (§1) Test Animals: Five- to 6-week old athymic mice (CD-1 nu/nu females), used for human tumor xenografts, were obtained from Harlan Laboratories (Indianapolis, Ind.). Animals were housed in specific pathogen-free conditions, according to the guidelines of the Association for Assessment and Accreditation of Laboratory Animal Care International (AAALAC International). Test animals were provided pelleted food and water ad libitum and kept in a room with conditioned ventilation (HVAC), temperature (22°±2° C.), relative humidity (55%±15%), and photoperiod (12 hr). All studies were carried out with approved institutional animal care and use protocols.
# (§2) Human Melanoma Xenograft Models. The tumor inhibitory activity of the CR011-MMAE immunoconjugate was measured in an anti-tumor xenograft model using athymic mice, according to published methods (see Geran et al., Cancer Chemother. Rep. 3:1-104 (1972)). […] When tumors became established (10-20 days), the animals were pair-matched into groups (n=6 mice/group), and treatment was administered by intravenous injection (tail vein).
# (§3) The SK-MEL-2 human melanoma (ATCC #HTB-68) was derived from a metastatic site (skin of thigh) of a person with malignant melanoma, and the SK-MEL-5 human melanoma (ATCC #HTB-70) was derived from a metastatic site (axillary lymph node) of a person with malignant melanoma (see Fogh et al., J. Natl. Cancer Inst. 59: 221-226 (1977)). Both cell lines were obtained from the American Type Culture Collection.
# (§4) The effects of treatment were monitored by repetitive tumor measurements across 2 diameters with Vernier calipers; tumor size (in mg) was calculated using a standard formula, (W^2×L)/2, assuming a specific gravity of 1.0. Tumor size and body weights were assessed twice weekly. Mice were examined daily, however, and moribund animals were humanely euthanized if clinical indications of excessive pain or distress were noted (i.e., prostration, hunched posture, paralysis/paresis, distended abdomen, ulcerations, abscesses, seizures, and/or hemorrhages). Animals with tumors exceeding 2,000 mg were removed from the study and euthanized humanely.
# Soon after the commencement of treatment with paclitaxel, however, significant tumor growth inhibition was observed (P≦0.039) at day 3 after treatment began, and this anti-tumor effect continued, producing 100% growth inhibition (stasis). The responses of SK-MEL-5-bearing test animals to vinblastine and paclitaxel were short-lived. After cessation of treatment at the maximally tolerated doses, tumors resumed rapid, progressive growth.
# [2] = test system: SK-MEL-2 melanoma xenografts; assay: Human SK-MEL-2 melanoma xenograft in athymic mice; type: in vivo
# Procedure: as §1, §2, §3, §4
# No apparent or statistically significant anti-tumor effects were observed. […] In preliminary studies, tumor regression was complete and was not followed by regrowth of the tumor despite lengthy observation periods (up to 200 days).
# UACC-62 = assay: Anti GPNMB antibody mediated indirect cell killing (saporin secondary antibody-toxin conjugate, colony count); type: cell-based, human; details: 5-FU at 600 uM, positive reagent control
# Procedure: UACC-62, a GPNMB antigen expressing cell line, and TK10, a non-expressing cell line were plated onto flat bottom 96-well tissue culture plates (Becton Dickinson, Franklin Lakes, N.J., USA) at a density of 3000 cells per well. Once the cells reached ˜25% confluency, 100 ng/well of secondary antibody-toxin conjugate (goat anti-human IgG-saporin; Advanced Targeting Systems, San Diego, USA, HUM-ZAP; cat. # IT-22) was added. Anti-GPNMB MAbs 2.10.2, 2.22.1, 1.15.1 or isotype control mAb (pK16.3) were added to each well at a final concentration of 10 or 50 ng/mL. An anti-EGFR monoclonal antibody (MS-269-PABX, NeoMarkers, Fremont, Calif., USA) was used as a positive primary antibody control. Chemotherapy reagent 5-FU at 600 uM was used as a positive reagent control. On day 5, the cells were trypsinized, transferred to 6-well tissue culture plates and incubated at 37° C. Plates were examined daily and between 8-10 days, all plates were Giemsa stained and colonies were counted.
# SK-Mel-2 cells [3] = assay: Flow cytometry of CR011 binding to cell surface CG56972/GPNMB; design: species or system human; details: SK-MEL-2
# Procedure: (§5) Flow Cytometry: Quantitative analysis of GPNMB expression on the cell surface of cell lines was determined by flow cytometry. […] Cells were fixed in 1% paraformaldehyde/PBS and examined on a Becton Dickinson FACSCalibur flow cytometer. Data analysis was performed with Becton Dickinson Cell Quest software version 3.3 and the geometric mean fluorescence intensity ratio (GMR) was determined for each cell type.
# as §5, with “CG56972” for “GPNMB”, “the” for “the cell”, “cytometry (FACS).” for “cytometry.”
# SK-Mel-2 cells [4] = assay: ADCC assay with human PBMC (DELFIA EuTDA cytotoxicity); type: cell-based; details: human PBMC 30 to 100 fold; 2, 5, 10 μg/200 μl
# Procedure: We next examined whether the CR0111gG1 mAb could induce ADCC in SK-MEL-2 cells in culture in the presence of human PBMC. Human PBMC were isolated from whole blood using a Ficoll-Plaque. Briefly, in a 50 mL tube, 15 mL of PBS was added to 20 mL of whole blood which was underlayed with 10 mL Ficoll-Plaque and the tube was centrifuged at 2000 RPM. Mononuclear cells were collected from the interface and washed 3 times with PBS. The ADCC assay was carried out in a 96 well plate using a fluorescence assay for cytolysis from Perkin-Elmer (DELFIA EuTDA Cytotoxic assay). The procedure is based on loading target cells with a fluorescence enhancing ligand (BATDA, bis (acetoxymethyl) terpyridine—dicarboxylate). The hydrophic ligand penetrates the membrane quickly. Within the cell the esterbonds are hydrolyzed to form a hydrophilic ligand (TDA, terpyridine—dicarboxylic acid) which can no longer pass through the membrane. After cytolysis the ligand is released and introduced to the Europium solution. The europium and the ligand form a highly fluorescent and stable chelate (EuTDA). Fluorescence intensity are recorded using excitation and emission wavelengths as λex=340 nm and λem=613 nm, respectively.
# GPNMB = target: T1, GPNMB (Homo sapiens, UniProt Q14956); assay: Binning of antibodies (Luminex competitive binding)
# T1 construct: made in house; host or cells: HEK 293
# T1 sequence (Q14956 23-492): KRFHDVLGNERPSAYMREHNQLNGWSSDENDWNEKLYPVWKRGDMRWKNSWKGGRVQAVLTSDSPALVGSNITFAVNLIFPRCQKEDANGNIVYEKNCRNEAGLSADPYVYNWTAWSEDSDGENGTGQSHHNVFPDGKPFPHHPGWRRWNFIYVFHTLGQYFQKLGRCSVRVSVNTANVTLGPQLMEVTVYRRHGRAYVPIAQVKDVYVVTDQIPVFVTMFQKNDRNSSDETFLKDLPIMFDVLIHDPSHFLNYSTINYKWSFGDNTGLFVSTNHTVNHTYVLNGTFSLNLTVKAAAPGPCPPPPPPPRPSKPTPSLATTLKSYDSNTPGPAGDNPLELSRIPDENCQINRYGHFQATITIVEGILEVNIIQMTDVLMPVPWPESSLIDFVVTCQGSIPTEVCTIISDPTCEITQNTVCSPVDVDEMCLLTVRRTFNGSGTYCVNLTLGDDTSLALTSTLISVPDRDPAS
# Procedure: Certain antibodies, described herein were binned in accordance with the protocol described in U.S. Patent Application Publication No. 20030157730. MxhIgG conjugated beads are prepared for coupling to primary antibody. The volume of supernatant needed is calculated using the following formula: (n+10)×50 μL (where n=total number of samples on plate). Where the concentration is known, 0.5 μg/mL is used. Bead stock is gently vortexed, then diluted in supernatant to a concentration of 2500 of each bead per well or 0.5×10^5/mL and incubated on a shaker in the dark at RT overnight, or 2 hours if at a known concentration of […]. Following aspiration, 50 μL of each bead is added to each well of filter plate, then washed once by adding 100 μL/well wash buffer and aspirating. Antigen and controls are added to filter plate 50 μL/well then covered and allowed to incubate in the dark for 1 hour on shaker. Following a wash step, a secondary unknown antibody is added at 50 μL/well using the same dilution (or concentration if known) as is used for the primary antibody. The plates are then incubated in the dark for 2 hours at RT on shaker followed by a wash step. Next, 50 μL/well biotinylated mxhIgG diluted 1:500 is added and allowed to incubate in the dark for 1 hour on shaker at RT. Following a wash step, 50 μL/well Streptavidin-PE is added at 1:1000 and allowed to incubate in the dark for 15 minutes on shaker at RT.
compound,measurement,setting,value
"CC[C@]1(O)C[C@@H]2CN(CCc3c([nH]c4ccccc34)[C@@](C(=O)OC)(c3cc4c(cc3OC)N(C)[C@H]3[C@@](O)(C(=O)OC)[C@H](OC(C)=O)[C@]5(CC)C=CCN6CC[C@]43[C@@H]65)C2)C1 [vinblastine, vinblastine sulfate, reference compound]",anti-tumor effect,"[1]; CR011-ONC-3, i.v., vs saline and PBS control groups","noticeable, but not significant tumor growth inhibition"
same,anti-tumor effect,"[2]; Study N-386, i.v., CR011-vcMMAE 20, 10, 5 or 2.5 mg/kg q4d x4, vinblastine […] q4d x4","very slight, but not significant, anti-tumor effect"
"O=c1[nH]cc(F)c(=O)[nH]1 [Mab 5-FU, 5-FU]",killing of cells,UACC-62,complete killing
CR011 IgG1: CR011 mAb 1.15.1 switched to IgG1 constant region; heavy chain SEQ ID NO: 395,FACS shifts compared to isotype control mAbs,SK-Mel-2 cells [3],comparable FACS shifts
same,ADCC / cytolysis of SK-MEL-2 cells,SK-Mel-2 cells [4],mediated ADCC; also recorded: caused cytolysis of SK-MEL-2 cells in a dose dependent manner
"CC(=O)O[C@H]1C(=O)[C@@]2(C)[C@H]([C@H](OC(=O)c3ccccc3)[C@]3(O)C[C@H](OC(=O)[C@H](O)[C@@H](NC(=O)c4ccccc4)c4ccccc4)C(C)=C1C3(C)C)[C@]1(OC(C)=O)CO[C@@H]1C[C@@H]2O [paclitaxel, reference compound]","long-term, tumor-free survivors",[1]; paclitaxel group,"One long-term, tumor-free survivor"
"CC[C@H](C)[C@@H]([C@@H](CC(=O)N1CCC[C@H]1[C@H](OC)[C@@H](C)C(=O)N[C@H](C)[C@@H](O)c1ccccc1)OC)N(C)C(=O)[C@@H](NC(=O)[C@@H](NC)C(C)C)C(C)C [free monomethylauristatin E, monomethylauristatin E, reference compound] (H-[NMeV]V[Dil][Dolaproine]-X1)",tumor response,"[2]; CR011-ONC-1, CR011-vcMMAE 5 mg/kg/treatment i.v. q4d x4, components at doses identical to those in the immunoconjugate",lack of responses; also recorded: lack of tumor growth inhibition
1.15: anti-GPNMB antibody 1.15 of the binning tables; line of the lead mAb 1.15 / CR011,bin,GPNMB; bin assignment of Table 8,VIII
same,bin,"GPNMB; bin assignment of Table 9, Cut-off = 90",VIII
same,binning signal (Table 8),GPNMB; paired with 1.1,91
same,binning signal (Table 8),GPNMB; paired with 1.11,10
same,binning signal (Table 9),GPNMB; paired with 1.11,19
same,binning signal (Table 8),GPNMB; paired with 1.12,15
same,binning signal (Table 9),GPNMB; paired with 1.12,21
same,binning signal (Table 8),GPNMB; paired with 1.13,13
same,binning signal (Table 9),GPNMB; paired with 1.13,5
same,binning signal (Table 8),GPNMB; paired with 1.15,0
same,binning signal (Table 9),GPNMB; paired with 1.15,0
same,binning signal (Table 8),GPNMB; paired with 1.2,79
same,binning signal (Table 9),GPNMB; paired with 1.2,90
same,binning signal (Table 8),GPNMB; paired with 1.3,71
same,binning signal (Table 9),GPNMB; paired with 1.3,51
same,binning signal (Table 8),GPNMB; paired with 1.5,15
same,binning signal (Table 9),GPNMB; paired with 1.5,−9
same,binning signal (Table 8),GPNMB; paired with 1.7,21
same,binning signal (Table 9),GPNMB; paired with 1.7,17
same,binning signal (Table 8),GPNMB; paired with 1.8,8
same,binning signal (Table 9),GPNMB; paired with 1.8,12
same,binning signal (Table 8),GPNMB; paired with 1.9,12
same,binning signal (Table 9),GPNMB; paired with 1.9,19
same,binning signal (Table 8),GPNMB; paired with BB,−19
same,binning signal (Table 9),GPNMB; paired with BB,59
same,binning signal (Table 8),GPNMB; paired with xV5,89
